Assay results: patent EP4671282A1 (Jiangsu Hengrui Pharmaceuticals Co., Ltd., dated 2025)
Where two headings read alike, the source gives them in different places.

T1: human IL-36R full-length protein stably expressed on CHO-K1 cells (human, UniProt Q9HB29 20-575)
T1 construct: FlpIn CHO-K1 line expressing the full-length protein; also called human IL-36R on the surface of CHO-K1 cells; CHO-K1 cells overexpressing human IL-36R
T1 sequence: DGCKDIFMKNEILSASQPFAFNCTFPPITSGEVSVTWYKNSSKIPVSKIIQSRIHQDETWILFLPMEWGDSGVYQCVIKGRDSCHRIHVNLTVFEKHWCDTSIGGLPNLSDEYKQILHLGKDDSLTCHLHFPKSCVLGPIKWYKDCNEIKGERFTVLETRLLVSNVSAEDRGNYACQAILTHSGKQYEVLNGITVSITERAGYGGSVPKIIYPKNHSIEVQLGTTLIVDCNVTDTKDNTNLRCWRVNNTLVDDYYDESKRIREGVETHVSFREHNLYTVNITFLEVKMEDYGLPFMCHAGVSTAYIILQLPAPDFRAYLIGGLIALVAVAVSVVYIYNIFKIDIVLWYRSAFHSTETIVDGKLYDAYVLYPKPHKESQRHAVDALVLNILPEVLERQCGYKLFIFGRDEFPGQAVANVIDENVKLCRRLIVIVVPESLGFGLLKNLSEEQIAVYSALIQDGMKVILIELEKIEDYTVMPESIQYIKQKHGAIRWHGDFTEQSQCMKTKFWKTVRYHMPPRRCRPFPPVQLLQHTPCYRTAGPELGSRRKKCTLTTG

T2: IL-36R on human skin squamous cell line A431 (human, UniProt Q9HB29 20-575)
T2 sequence (looked up): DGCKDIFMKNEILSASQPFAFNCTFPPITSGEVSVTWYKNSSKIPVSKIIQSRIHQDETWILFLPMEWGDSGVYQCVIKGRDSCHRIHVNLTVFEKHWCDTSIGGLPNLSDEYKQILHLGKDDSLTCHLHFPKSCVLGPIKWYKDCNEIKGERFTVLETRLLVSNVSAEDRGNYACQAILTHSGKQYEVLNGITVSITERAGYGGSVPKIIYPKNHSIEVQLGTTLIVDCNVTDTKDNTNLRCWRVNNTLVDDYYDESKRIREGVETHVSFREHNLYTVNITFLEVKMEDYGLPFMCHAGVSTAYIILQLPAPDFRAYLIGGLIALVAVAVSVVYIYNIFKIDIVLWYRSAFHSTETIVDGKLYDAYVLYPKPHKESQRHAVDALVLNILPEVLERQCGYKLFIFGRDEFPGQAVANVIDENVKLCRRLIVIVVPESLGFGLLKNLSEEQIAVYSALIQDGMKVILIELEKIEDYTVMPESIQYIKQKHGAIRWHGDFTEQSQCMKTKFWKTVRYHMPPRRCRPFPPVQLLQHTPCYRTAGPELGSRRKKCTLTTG

T3: Human IL-36R protein (His + Avi Tag), Kactus IL1-HM4L2 (human, UniProt Q9HB29 20-335)
T3 construct: Bought protein; also called human IL-36R antigen protein; Human IL-36R antigen
T3 sequence: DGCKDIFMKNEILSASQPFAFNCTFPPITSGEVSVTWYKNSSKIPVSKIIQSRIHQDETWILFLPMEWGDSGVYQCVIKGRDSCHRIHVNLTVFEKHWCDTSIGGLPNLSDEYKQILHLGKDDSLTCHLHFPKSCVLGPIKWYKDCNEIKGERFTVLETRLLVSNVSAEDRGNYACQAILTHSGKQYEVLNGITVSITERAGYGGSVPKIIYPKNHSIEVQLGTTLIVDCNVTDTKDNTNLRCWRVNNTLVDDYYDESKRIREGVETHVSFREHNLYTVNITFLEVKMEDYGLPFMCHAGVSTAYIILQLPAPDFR

T4: human IL-23 protein (Sino Biological, CT048-H08H) (human, UniProt Q9NPF7 20-189; P29460 23-328)
T4 construct: Detected with Anti-His-HRP in the ELISA, so it carries a His tag
T4 sequence (looked up) 1: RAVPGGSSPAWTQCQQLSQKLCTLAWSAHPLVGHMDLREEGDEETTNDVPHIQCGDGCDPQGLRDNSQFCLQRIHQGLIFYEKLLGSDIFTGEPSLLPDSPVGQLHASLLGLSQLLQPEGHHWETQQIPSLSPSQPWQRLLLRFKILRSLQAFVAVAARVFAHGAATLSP
T4 sequence (looked up) 2: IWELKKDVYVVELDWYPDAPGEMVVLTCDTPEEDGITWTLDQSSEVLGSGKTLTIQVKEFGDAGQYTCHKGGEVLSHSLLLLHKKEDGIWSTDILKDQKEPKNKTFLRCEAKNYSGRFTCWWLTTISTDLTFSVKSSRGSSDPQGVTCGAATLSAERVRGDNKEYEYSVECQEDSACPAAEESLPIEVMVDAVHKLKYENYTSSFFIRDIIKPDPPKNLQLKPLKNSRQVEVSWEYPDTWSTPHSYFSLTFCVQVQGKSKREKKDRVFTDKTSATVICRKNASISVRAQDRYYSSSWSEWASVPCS

T5: human IL-23 protein (ACROBiosystems, ILB-H52W5) (human, UniProt Q9NPF7 20-189; P29460 23-328)
T5 construct: Bought protein; construct not described; also called Human IL-23 antigen; human IL-23 antigen protein
T5 sequence (looked up) 1: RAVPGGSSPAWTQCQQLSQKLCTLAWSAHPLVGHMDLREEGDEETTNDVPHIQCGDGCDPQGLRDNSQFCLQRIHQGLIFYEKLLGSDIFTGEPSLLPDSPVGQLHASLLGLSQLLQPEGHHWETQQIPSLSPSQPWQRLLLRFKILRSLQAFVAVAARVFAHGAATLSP
T5 sequence (looked up) 2: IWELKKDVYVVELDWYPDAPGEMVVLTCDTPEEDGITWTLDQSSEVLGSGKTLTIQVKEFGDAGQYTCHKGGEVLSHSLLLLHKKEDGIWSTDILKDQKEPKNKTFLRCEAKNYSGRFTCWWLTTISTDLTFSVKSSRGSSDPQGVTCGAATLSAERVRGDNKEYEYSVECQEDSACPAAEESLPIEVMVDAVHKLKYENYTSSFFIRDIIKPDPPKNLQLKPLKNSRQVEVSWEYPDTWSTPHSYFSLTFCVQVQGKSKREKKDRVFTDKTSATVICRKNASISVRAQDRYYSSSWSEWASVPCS


Experiments:
[1] = target: T1, human IL-36R full-length protein stably …; assay: FACS, CHO-K1 cells overexpressing human IL-36R
[2] = target: T2, IL-36R on human skin squamous cell line …; assay: cell-based or functional assay
[3] = target: T1, human IL-36R full-length protein stably …; assay: FACS, CHO-K1 cells overexpressing human IL-36R; remark: listed apart in the source
[4] = target: T3, Human IL-36R protein (His + Avi Tag), …; assay: SPR (Biacore 8K), antibody captured by anti-human IgG Fc, IL-36R as analyte
[5] = target: T1, human IL-36R full-length protein stably …; assay: FACS, CHO-K1 cells overexpressing human IL-36R; remark: listed apart in the source
[6] = target: T2, IL-36R on human skin squamous cell line …; assay: cell-based or functional assay; remark: listed apart in the source
[7] = target: T4, human IL-23 protein (Sino Biological, …); assay: competition ELISA, IL-23R coated, biotinylated IL-23 preincubated with antibody
[8] = target: T4, human IL-23 protein (Sino Biological, …); assay: SPR (Biacore 8K), antibody captured on Protein A chip, IL-23 as analyte
[9] = target: T5, human IL-23 protein (ACROBiosystems, …); assay: ELISA, human IL-23 coated

EC50 [1] [nM] | Maximum MFI [1] [MFI] | IL-8 secretion (A431), IL-36α, IC50 [2] [nM] | IL-8 secretion (A431), IL-36β, IC50 [2] [nM] | IL-8 secretion (A431), IL-36γ, IC50 [2] [nM] | EC50 [3] [nM] | Maximum MFI [3] [MFI] | Kd [4] [nM] | koff [4] [s⁻¹] | kon [4] [M⁻¹ s⁻¹] | EC50 [5] [nM] | Maximum MFI [5] [MFI] | IL-36α-induced A431 IL-8 secretion IC50 [6] [nM] | IC50 [7] [nM] | Kd [8] [nM] | koff [8] [s⁻¹] | kon [8] [M⁻¹ s⁻¹] | EC50 [9] [nM] | Binder
0.51 | 14200 | 0.26 | 0.1 | 0.04 | 0.75 | 12900 | 7.16 | 9.54e-05 | 13300 | 0.51 | 13400 | 0.06 |  |  |  |  |  | BI655130 (anti-human IL-36R antibody from Boehringer Ingelheim) (antibody, human IgG1, kappa, L234A L235A, V domains shown, Control, self-expressed according to WO2013074569A1; also called B1655130) VH: QVQLVQSGAEVKKPGASVKVSCKASGYSFTSSWIHWVKQAPGQGLEWMGEINPGNVRTNYNENFRNKVTMTVDTSISTAYMELSRLRSDDTAVYYCTVVFYGEPYFPYWGQGTLVTVSS VL: QIVLTQSPGTLSLSPGERATMTCTASSSVSSSYFHWYQQKPGQAPRLWIYRTSRLASGVPDRFSGSGSGTDFTLTISRLEPEDAATYYCHQFHRSPLTFGAGTKLEIKR
 |  |  |  |  |  |  |  |  |  |  |  |  | 0.61 | 0.0651 | 4.91e-05 | 754000 | 4.72 | Risankizumab (anti-IL-23 antibody control molecule) (antibody, human IgG1, kappa, L234A L235A, V domains shown) VH: QVQLVQSGAEVKKPGSSVKVSCKASGYTFTDQTIHWMRQAPGQGLEWIGYIYPRDDSPKYNENFKGKVTITADKSTSTAYMELSSLRSEDTAVYYCAIPDRSGYAWFIYWGQGTLVTVSS VL: DIQMTQSPSSLSASVGDRVTITCKASRDVAIAVAWYQQKPGKVPKLLIYWASTRHTGVPSRFSGSGSRTDFTLTISSLQPEDVADYFCHQYSSYPFTFGSGTKLEIKR
0.51 | 11200 | 0.64 | 0.26 | 0.06 | 0.64 | 10600 | 6.4 | 0.000364 | 56800 | 0.37 | 10900 | 0.15 |  |  |  |  |  | H4H14706P2 (anti-human IL-36R antibody from Regeneron) (antibody, human IgG4 S228P, kappa, V domains shown, Control, self-expressed according to WO2020018503A2) VH: EVQLVESGGGLVQPGRSLRLSCTASGFTFDDYAIHWVRQSPGKGLEWVSVISWNSDVIGYADSVKGRFTISRDNAKNSLYLQMNSLRAEDTALYYCAKGYNWNFFDYWGQGTLVTVSS VL: EIVLTQSPATLSLSPGERATLSCRASQSVSSYLAWYQQKPGQAPRLLIYNAANRATDIPARFSGSGSGTDFTLTISSLEPEDFAVYYCQQRSNWPLTFGGGTKVEIKR
